For experiment [1], the target named is T1, human CD93 (human, UniProt Q9NPY3 22-652).
T1 construct: whole, on cells; Endogenous CD93 on AML cell lines
T1 sequence (looked up): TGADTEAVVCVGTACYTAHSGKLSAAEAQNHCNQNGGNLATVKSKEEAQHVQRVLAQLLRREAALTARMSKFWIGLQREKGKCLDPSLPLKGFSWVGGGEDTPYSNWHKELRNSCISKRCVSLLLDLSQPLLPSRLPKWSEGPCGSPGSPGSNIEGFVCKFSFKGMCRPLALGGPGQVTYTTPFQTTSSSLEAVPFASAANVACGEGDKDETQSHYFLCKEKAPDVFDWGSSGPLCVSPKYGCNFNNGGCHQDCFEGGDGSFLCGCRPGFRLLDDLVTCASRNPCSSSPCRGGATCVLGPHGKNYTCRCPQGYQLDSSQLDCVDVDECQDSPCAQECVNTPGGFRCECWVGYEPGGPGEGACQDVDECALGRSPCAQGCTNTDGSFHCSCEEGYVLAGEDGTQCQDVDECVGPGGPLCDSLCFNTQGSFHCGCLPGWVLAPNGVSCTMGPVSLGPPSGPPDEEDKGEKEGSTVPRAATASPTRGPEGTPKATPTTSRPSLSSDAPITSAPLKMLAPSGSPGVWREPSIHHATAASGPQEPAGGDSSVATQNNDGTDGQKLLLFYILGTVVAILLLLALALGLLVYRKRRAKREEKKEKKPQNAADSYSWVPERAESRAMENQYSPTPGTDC
Put plainly: hybridoma supernatant screen by ELISA and flow cytometry. (An ELISA detects its analyte on a solid surface through an enzyme-linked reagent.)

For experiment [2], the target named is T1, human CD93. Put plainly: flow cytometry on AML cell lines, biotinylated antibody and streptavidin APC. The protocol:
FIG. 8. CD93-specific CAR T cells produce cytokines when incubated with CD93 positive AML cell lines. A. AML cell lines were first treated with Fc block, then were stained with biotinylated HuF11 antibody followed by streptavidin APC, or with streptavidin APC only as a control. CD93 was highly expressed on many AML cell lines including THP-1, Kasumi, MOLM-13, NOMO-1, and OCI-AML3, and was not expressed on HEL-2. B. 1×10⁵ AML cells were incubated with 1×10⁵ mock, F11 28ζ LH, F11 28ζ H-L, F11 BBζ L-H, or F11 BBζ H-L CAR T cells for 24 h. At 24 h, supernatant was harvested and ELISA was performed for IFNγ and IL-2. Results are representative of at least three independent experiments.
In general terms: Flow cytometry measures light scatter and fluorescence of single cells or particles in a stream.

B1: mouse monoclonal anti-human CD93 antibody F11 (hybridoma clone F11) (antibody, V domains shown)
VH: EVQLQQSGPELVKPGASVKIPCKASGYTFTDYHMDWVKQSHGKSLEWIGDIDPYNGDTVFNQKFKGKATLTVDKSSSTAYMELRSLTSEDTAVYYCTRGGDYWGQGTTLTVSS
VL: DVVMTQTPLSLPVSLGDQASISCRSSQTLVHSNGNTYLHWYLQKPGQSPKLLIYKVSNRFSGVPDRFSGSGSGTDFTLKISRVEAEDLGVYFCSQSTHVPFTFGSGTKLEIK
notes: Mouse hybridoma antibody tested as supernatant; also called mouse F11; parental antibody
Turning to B1, the binding result in experiment [1] is on record as “binds”.

B2: humanized F11-G1 (Hu F11-G1) (antibody, V domains shown)
VH: QVQLVQSGAEVKKPGASVKVSCKASGYTFTDYHMDWVKQAPGQGLEWIGDIDPYNGDTVFNQKFKGKATMTRDTSISTAYMELSRLRSDDTAVYYCTRGGDYWGQGTLVTVSS
VL: DIVMTQTPLSLSVTPGQPASISCRSSQTLVHSNGNTYLHWYLQKPGQPPQLLIYKVSNRFSGVPDRFSGSGSGTDFTLKISRVEAEDVGVYFCSQSTHVPFTFGQGTKLEIK
notes: The light chain was detected with anti-human kappa; also called humanized mCD93 antibody (F11); humanized anti-CD93 antibody
In the case of B2, in experiment [2], the binding result is reported as “binds”.

For the origin of these results see patent publication US20220133794A1 (Stanford University, published 2022).
